Data reported in patent US20110040077, “Protein-Responsive Translational Regulatory System Using RNA-Protein Interacting Motif” (JAPAN SCIENCE AND TECHNOLOGY AGENCY, published 2011).

Key:
[1] = biological target: T1, ThrRS (threonyl-tRNA synthetase) (Escherichia coli, UniProt P0A8M3 SEQ:13-654); experiment: EMSA; 50 mM KCl, 5 mM MgCl2, 0-40 uM protein; stronger than Domain 2; settings: tags: His tag (pQE-30); label: 32P
Description: (§1) The reaction of ThrRS with Domain 234 or Domain 2 was performed as follows under conditions involving final concentrations of 20 nM RNA, 25 mM Hepes-KOH, 50 mM KCl, 5 mM MgCl₂, 1 mM DTT, 5% glycerol, and 0 to 40 μM protein. First, […] ³²P-labeled RNA was denatured at 80° C. for 5 minutes and then supplemented with 4 μL of 5×binding buffer ([…], 250 mM KCl, 25 mM MgCl₂, 5 mM DTT, 25% glycerol) and ultrapure water. Then, the solution was mixed with the protein to adjust the whole amount to 20 μL. The reaction solution was left on ice for 60 minutes. 2 μL of dye (0.25% BPB, 0.25% XC, 30% glycerol) was added thereto, and the mixture was electrophoresed on a 12% nondenaturing polyacrylamide gel at 4° C. for 3 to 4 hours. Then, the gel was dried for 1 hour using a gel drier and analyzed for its radiation dose intensity using Bio-Imaging Analyzer (BAS2500; FUJIFILM) (FIGS. 6 and 7).
(§2) As a result, both ThrRS Domain 234 and ThrRS Domain 2 were confirmed to increase the band in a ThrRS protein concentration-dependent manner. […] As is also evident from the degree of band smear, Domain 234 has stronger binding than only Domain 2.

L7Ae [2] = biological target: T2, L7Ae (Archaeoglobus fulgidus, UniProt O29494 SEQ:21-139); experiment: EMSA; 150 mM KCl, 1.5 mM MgCl2, tRNA competitor, 0-500 nM protein, on ice; settings: tags: His tag (pET-28b+, NdeI/XhoI); label: 32P
T2 sequence (O29494 whole entry): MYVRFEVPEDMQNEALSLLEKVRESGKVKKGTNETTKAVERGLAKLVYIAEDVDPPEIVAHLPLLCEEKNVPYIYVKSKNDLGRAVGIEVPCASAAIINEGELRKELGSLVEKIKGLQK
Description: (§3) The reaction of L7Ae with Box C/D, Box C/D mini, or Box C/D minimut was performed at a final concentration of 10 nM, 25 nM, or 25 nM RNA, respectively. The reaction was performed as follows under conditions involving 10 nM or 25 nM RNA, 20 mM Hepes-KOH, 150 mM KCl, 1.5 mM MgCl₂, 2 mM DTT, 0.001 U/mL tRNA, 3% glycerol, and 0 to 500 nM protein. First, 1 μL of ³²P-labeled RNA was denatured at 80° C. for 5 minutes and then supplemented with 4 μL of 5×binding buffer (100 mM Hepes-KOH (pH 7.5), 750 mM KCl, 7.5 mM MgCl₂, 10 mM DTT, 0.005 U/ρL tRNA, 15% glycerol) and ultrapure water. Then, the solution was mixed with the protein to adjust the whole amount to 20 μL. The reaction solution was left on ice for 60 minutes. 2 μL of dye (0.25% BPB, 0.25% XC, 30% glycerol) was added thereto, and the mixture was electrophoresed on a 8% nondenaturing polyacrylamide gel at 4° C. for 3 to 4 hours. Then, the gel was dried for 1 hour using a gel drier and analyzed for its radiation dose intensity using Bio-Imaging Analyzer (BAS2500; FUJIFILM) (FIGS. 4 and 5).

L7Ae [3] = biological target: T2, L7Ae; experiment: as above; settings: tags: His tag (pET-28b+, NdeI/XhoI); label: 32P; remark: listed apart in the source
Description: as §3
(§4) As a result, both Box C/D and Box C/D mini were confirmed to increase the band in an L7Ae protein concentration-dependent manner.

[4] = biological target: T1, ThrRS (threonyl-tRNA synthetase); experiment: EMSA; 50 mM KCl, 5 mM MgCl2, 0-40 uM protein; supershift suggests dimer; weaker than Domain 234; settings: tags: His tag (pQE-30); label: 32P
Description: as §1, §2

L7Ae [5] = biological target: T2, L7Ae; experiment: EMSA; no band increase at 0-500 nM protein; settings: tags: His tag (pET-28b+, NdeI/XhoI); label: 32P
Description: as §3, §4

T1 sequence (P0A8M3 whole entry, the tested form may be a part): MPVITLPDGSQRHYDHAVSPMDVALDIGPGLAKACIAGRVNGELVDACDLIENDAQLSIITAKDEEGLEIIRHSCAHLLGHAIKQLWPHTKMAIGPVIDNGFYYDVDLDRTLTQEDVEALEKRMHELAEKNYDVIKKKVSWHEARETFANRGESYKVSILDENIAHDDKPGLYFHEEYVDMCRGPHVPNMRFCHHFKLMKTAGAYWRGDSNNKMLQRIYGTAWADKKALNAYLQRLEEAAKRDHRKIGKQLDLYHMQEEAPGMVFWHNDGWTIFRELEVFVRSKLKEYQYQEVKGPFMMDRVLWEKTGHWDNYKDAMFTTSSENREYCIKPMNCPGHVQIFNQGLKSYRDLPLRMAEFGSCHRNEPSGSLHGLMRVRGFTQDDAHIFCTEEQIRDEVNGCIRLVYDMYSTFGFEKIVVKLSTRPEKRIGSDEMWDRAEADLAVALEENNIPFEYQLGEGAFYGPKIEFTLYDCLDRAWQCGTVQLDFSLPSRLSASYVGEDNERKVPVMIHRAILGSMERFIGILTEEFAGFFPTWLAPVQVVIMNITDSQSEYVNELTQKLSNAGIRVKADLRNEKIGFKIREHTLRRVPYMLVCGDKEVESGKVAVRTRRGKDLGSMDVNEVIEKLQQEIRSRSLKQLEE

B1: ThrRS Domain 234 (ssRNA)
RNA: GGAUUGCGAACCAAUUUAGCAUUUGUUGGCUGCAAAUGGUUUCGCAAUGAACUGUUAAUAAACAAAUUUUUCUUUGUAUGUGAUCUUUCGUGUGGGUCACCACUGCAAA
binding result [1]: binds

B2: Box C/D (ssRNA)
RNA: GGCCAGAGUGGGCGUGAUGCAUGUCUAGGAAACUAGACAUGCUGACCCACUCUGGCC
binding result (L7Ae [2]): binds

GGGCGUGAUGCGAAAGCUGACCC (ssRNA) [Box C/D mini]
binding result (L7Ae [3]): binds

GGCGUAUGUGAUCUUUCGUGUGGGUCACCACUGCGCC (ssRNA) [ThrRS Domain 2]
binding result [4]: binds

GGGCGUCAUGCGAAAGCUGCCCC (ssRNA) [Box C/D minimut]
binding result (L7Ae [5]): no binding
